Results: the DeepSol protein solubility set

Experiment: soluble on expression in E. coli; label from the status in PepcDB or PDB records

Row | Sequence | soluble on expression in E. coli
1 | MSENENSQEKNELLDALNSVEEVNVGDVVKGEVLAIDDDKQVIVGIQGTGVEGVVPLKELSTQRVDDVNEAAKVGDVLDLVVISRIGSDKENGSYLLSHRRLEARKVWDDVEKEYEAGHTIKAPVTQVVKGGLVVDAGVRGFIPASMIDDHYVEDLNAYKGQELELKIIEIEPSENRLILSHRAVVEKQREAQREEALKTLQAGDVVEGKVARLTNFGAFVDLGGIDGLVHVSEISYERVEKPADVLKVGQEVTVKILSVDADRERVSLSIKATLPEPWDGIEEKAPQGAVLDGKVKRLTSFGAFVEVFPGVEGLVHISQISHQHIATPNDVLKVGQEIKVKVLDVRPDEKRLALSIKALEEKPQTADDDNESQPERRSNNNRRRNNNRDNRTASERSTANAPEESTGFTLGDLIGDELKNAESNNDENLEHHHHHH | not soluble
2 | MSERHGVQEATLRNWANLGYITSCRMGNQLFLDDESLTAYLEAHKRLGLQADYLAKIVEEKKLERDFIISRYDDLLYVLRTQKTCKPLYEIIIRELSQLIVHPGARDIFYSISMGESIEKVAGRHRITYDRALQIYNSHLRGLKVRKNVLATYRKHIIDARFQSLADKSKNINLNQEERVLQLSVGKVADTRLTNVLYKEEIRTVGQLLELVSGKGWRWLLKMEGVGRISYDRLLSNLQLAGVVDESLEQILSGRSDR | not soluble
3 | MSERLYYFVIVGRDDRVLYDLLYPASLSELDWRTSSELSSPAERGDFEPHHFIPSIQVLLQFVAYSALDHIEEKYWLTSARSLKHIFRFRDWSASVQLTPNAATRFVLVHGASDDASRNVRAFLHAVYEAYVPHVVCNPFQEEDAPITSKRFHEVAKNLAKRYFSG | not soluble
4 | MSESFAQLFEESLKVLETRQGSIVSGTVVAIQKGFVLVDAGLKSESAIPVAEFLNAQGELEIQVGDTVNVALDAVEDGFGETKLSREKAVRHESWIELEKAYEEKATVIGLIGKVKGGFTVELNGVRAFLPGSLVDTRPAREADHLLGKELEFKVIKLDQKRNNVVVSRRAVIESENSQEREQVLENLVEGSEVKGVVKNLTEYGAFVDLGGVDGLLHITDMAWKRVKHPSEIVNVGDEVTVKVLKFDKDRTRVSLGLKQLGQDPWAAIAENHPVNSKLTGKVTNLTDYGCFVEILDGVEGLVHVSEMDWTNKNIHPSKVVSLGDTVEVMVLEIDEERRRISLGLKQCKANPWTQFADTHNKGDKVTGKIKSITDFGIFIGLEGGIDGLVHLSDISWSISGEEAVRQYKKGDEVSAVVLAVDAVKERISLGIKQLEEDPFNNFVAINKKGAVVSATVVEADAKGAKVELAGGVEGYIRSADLTSEVAVGDVVEAKYTGVDRKSRIVHLSVKAKDQAEEAAAVASVNNKQEDIVIPNAMAEAFKAAKGELEHHHHHH | not soluble
5 | MSESTSSVGPGRPKDPAKREAILEAAKRLFLCNGYDGSSMEAIASEAGVSKLTVYSHFTDKETLFSEAVKAKCAEQLPALYFQLAEGAPLEKVLLNIARGFHRLINSHEAIALTRLMAAQAGQNPKLSELFFEAGPKQVIDEMERLLEQARRSGKLAFPDARHAAEHFFMLVKGCANYRLLIGCAEPLDEAEGERHVEEVVALFLRAFAAGG | not soluble
6 | MSETKNDIAWERIFKKYRILEKIKKNGAFEITSGQINEFREARLMTKFDHRKNLPKIFEENNFSILPITRGSYLIAQFKAYHRLEEKETEIIKIPFPTYIESIDYENITSEAAALNCAYVSGILADFIEDEEMVPTVTGRMSSDAFCFYINTYSGSKFKVNVTNAQIEIDGGYEGLGTFSLIEAKNSLSDDFIIRQIYYPYRLWHDKINKKVKPIFMTYSNGIFTFYEYEFQDPEDYNSLTLVKQKKYSIEETEIGLDDIIEIYKRTKIINEPEVPFPQADSFERIINLCELLNESELTRDEITTNYDFDSRQTNYYTDAARYLGLVHKRKEGREVIFSLTEEGEKLFKLKYKPRQLKFVELILSHKVFREVFELCLKNGKMPDKHEVVKIMRYSNLYKIESEKTFYRRAQTIMSWIKWILELTRL | not soluble
7 | MSETPAQCSIKQERISYTPPESPVPSYASSTPLHVPVPRALRMEEDSIRLPAHLRLQPIYWSRDDVAQWLKWAENEFSLRPIDSNTFEMNGKALLLLTKEDFRYRSPHSGDVLYELLQHILKQRKPRILFSPFFHPGNSIHTQPEVILHQNHEEDNCVQRTPRPSVDNVHHNPPTIELLHRSRSPITTNHRPSPDPEQRPLRSPLDNMIRRLSPAERAQGPRPHQENNHQESYPLSVSPMENNHCPASSESHPKPSSPRQESTRVIQLMPSPIMHPLILNPRHSVDFKQSRLSEDGLHREGKPINLSHREDLAYMNHIMVSVSPPEEHAMPIGRIADCRLLWDYVYQLLSDSRYENFIRWEDKESKIFRIVDPNGLARLWGNHKNRTNMTYEKMSRALRHYYKLNIIRKEPGQRLLFRFMKTPDEIMSGRTDRLEHLESQELDEQIYQEDEC | soluble
8 | MSEVLITGLRTRAVNVPLAYPVHTAVGTVGTAPLVLIDLATSAGVVGHSYLFAYTPVALKSLKQLLDDMAAMIVNEPLAPVSLEAMLAKRFCLAGYTGLIRMAAAGIDMAAWDALGKVHETPLVKLLGANARPVQAYDSHSLDGVKLATERAVTAAELGFRAVKTRIGYPALDQDLAVVRSIRQAVGDDFGIMVDYNQSLDVPAAIKRSQALQQEGVTWIEEPTLQHDYEGHQRIQSKLNVPVQMGENWLGPEEMFKALSIGACRLAMPDAMKIGGVTGWIRASALAQQFGIPMSSHLFQEISAHLLAATPTAHWLERLDLAGSVIEPTLTFEGGNAVIPDLPGVGIIWREKEIGKYLV | soluble
9 | MSEVPHFVLYEHAAGYALMKIKEFDDAGLILQEVDAAHADGYKFSQIVELASFDPFKNTEAALENCNSISEGLAHPDLTNFLQKSLPKKKKHVVLGINDSKLAGSLTEAFPDLKLVFGGVITEILRGTRVHFERLAKNLPHHSLSKAQLSLGHSYSRSKVKFDVHRVDNMVIQSIALLDQLDKDINLFGMRIREWYSYHYPELFRLAPDQYKYSRLAVAILDRNKMAENENLENEILEILDNDSEKTAQIIEAARTSMGMDISDLDLENIKRFAARVSSLMEYRQQLHEYIKDRMDHCAPSLSALIGEQVGARLISHAGSLTNLAKYPASTVQILGAEKALFRALKTRSNTPKYGLLFHSSFIGKAGTKNKGRVSRYLANKCSIAARVDCFSETPVSTYGEFLRQQVEDRLEYFTSGTVPKKNIDVMKEAEEAAVEVKEKVIKKKKKAAKKAKRLAEESVTATAEAEVDEDAPKPKKKKKSKAGDE | not soluble
10 | MSFASGCTPVSFDKLFEVSSGDKVSRENWGMIARPEPQHDSLKRRNTTSSIAKKKAKMTRGDEQITDETARKAATQLLDQIQDTPGRISLNFETPEAASVCPIPTSLNQIVNTKWTVNQLQEGQLTMLLAQDANKFKSLGVKNIKKGSVETQILPRQMDVKEIVEKLKKQDNDSDQFVGYAAAVANVLRRCDAETAQKITQAITATIEKEAPSIVNC | not soluble
11 | MSFDPLPGTLENLLEQTSLKWIFVGGKGGVGKTTTSCSLAIQMSKVRSSVLLISTDPAHNLSDAFGTKFGKDARKVPGFDNLSAMEIDPNLSIQEMTEQADQQNPNNPLSGMMQDLAFTIPGIDEALAFAEILKQIKSMEFDCVIFDTAPTGHTLRFLNFPTVLEKALGKLGGLSSRFGPMINQMGSIMGVNANEQDLFGKMESMRANISEVNKQFKNPDLTTFVCVCISEFLSLYETERMIQELTSYEIDTHNIVVNQLLLDPNTTCPQCMARRKMQQKYLAQIEELYEDFHVVKVPQVPAEVRGTEALKSFSEMLVKPYVYPTSGKE | soluble
12 | MSFKVKNQSKHLYSLMTKFKRSQLILKHQSNNFASELWNEEDIIRSKQFIELIEDTLLHLKKDTVDFIYDIFIYGKKPCDISYSNSTYYKKLNKAANSFFDHFVWEAPIYKTKELKNDNSHS | soluble
13 | MSFTDEKIRLNIGGTIFETSKSTLTKFDGFFKTLLETDIPIQKDDSNCIFIDRSPRHFEKILNYLRDGADVDLLPESEKEVREILKEAQFYLLEGLMELCKRSSCKIRTFESYHHLLKLIAEAGKPVLVMFYLVKDNRIVHVPNNFEFLDFLEKHQGKLDIYFKESPYETTHQNPSQFLPPGREEAAPSWTYCFYNTPKLPFRFTISFVEKLEEDIEFVLGNLNK | not soluble
14 | MSFTVIIPARFASSRLPGKPLADIKGKPMIQHVFEKALQSGASRVIIATDNENVADVAKSFGAEVCMTSVNHNSGTERLAEVVEKLAIPDNEIIVNIQGDEPLIPPVIVRQVADNLAKFNVNMASLAVKIHDAEELFNPNAVKVLTDKDGYVLYFSRSVIPYDRDQFMNLQDVQKVQLSDAYLRHIGIYAYRAGFIKQYVQWAPTQLENLEKLEQLRVLYNGERIHVELAKEVPAVGVDTAEDLEKVRAILAANGSHHHHHH | soluble
